The target of test [1] is T1, human CD73 expressed at the cell surface (human, UniProt P21589 27-549).
T1 sequence: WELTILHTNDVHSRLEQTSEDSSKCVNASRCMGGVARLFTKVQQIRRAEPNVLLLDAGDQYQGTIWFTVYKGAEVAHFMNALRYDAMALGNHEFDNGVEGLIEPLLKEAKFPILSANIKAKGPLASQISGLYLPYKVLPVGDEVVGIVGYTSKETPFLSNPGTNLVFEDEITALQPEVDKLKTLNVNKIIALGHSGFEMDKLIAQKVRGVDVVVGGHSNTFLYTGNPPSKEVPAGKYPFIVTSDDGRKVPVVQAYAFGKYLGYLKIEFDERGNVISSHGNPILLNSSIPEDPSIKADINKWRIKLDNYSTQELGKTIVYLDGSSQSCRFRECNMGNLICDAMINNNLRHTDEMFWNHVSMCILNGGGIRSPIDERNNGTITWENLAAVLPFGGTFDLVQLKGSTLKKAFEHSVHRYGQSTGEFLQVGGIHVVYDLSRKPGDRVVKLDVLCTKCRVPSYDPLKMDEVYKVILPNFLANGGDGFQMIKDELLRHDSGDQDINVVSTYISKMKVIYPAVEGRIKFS
The test can be described thus: cell-based or functional assay.

In test [2] the target is recombinant human CD73-His extracellular domain recombinant protein (soluble dimer) (human) (UniProt P21589). The test can be described thus: ELISA, recombinant human CD73 coated at 5 µg/ml, antibody titrated. A general note: ELISA stands for enzyme-linked immunosorbent assay.
Test [3] deals with T1, human CD73 expressed at the cell surface. The test can be described thus: cell-based or functional assay. This is another data set of the same source.
Test [4] deals with T2, recombinant human CD73-His extracellular domain recombinant protein (soluble dimer) (human, UniProt P21589 27-547, limits assumed).
T2 sequence: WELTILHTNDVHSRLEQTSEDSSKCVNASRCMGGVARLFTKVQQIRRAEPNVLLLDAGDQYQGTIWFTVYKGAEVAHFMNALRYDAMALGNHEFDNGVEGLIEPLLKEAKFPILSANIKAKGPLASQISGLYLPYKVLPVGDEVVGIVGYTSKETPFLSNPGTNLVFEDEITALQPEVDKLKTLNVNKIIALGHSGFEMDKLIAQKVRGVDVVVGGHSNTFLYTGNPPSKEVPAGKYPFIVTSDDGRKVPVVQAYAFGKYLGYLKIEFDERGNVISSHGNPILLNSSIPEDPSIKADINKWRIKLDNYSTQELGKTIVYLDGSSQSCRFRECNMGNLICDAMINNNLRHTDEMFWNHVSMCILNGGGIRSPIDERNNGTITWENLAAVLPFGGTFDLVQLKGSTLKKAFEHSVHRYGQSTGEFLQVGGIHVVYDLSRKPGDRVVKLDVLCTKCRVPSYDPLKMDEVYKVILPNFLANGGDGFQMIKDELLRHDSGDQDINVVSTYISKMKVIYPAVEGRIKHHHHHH
As to the kind of experiment: cell-based or functional assay.

The target in test [5] is T1, human CD73 expressed at the cell surface. As to the kind of experiment: cell-based or functional assay. The source holds these as a separate data set.
The target is the same in test [6]. The test can be described thus: cell-based or functional assay. This is another data set of the same source.

Molecule antibody 7G2 (Life Technologies Corp.) had a down-modulation of CD73 expression on MDA-MB-231 cells (10 µg/ml antibody, time course) in test [1] of more than 50%. Moreover, in test [2], the EC50 was determined as 0.037 µg/mL.

B1: antibody 11E1 (antibody, V domains shown)
VH: EIQLQQSGPELVKPGASVKVSCKASGYAFTSYNMYWVKQSHGKSLEWIGYIDPYNGGTSYNQKFKGKATLTVDKSSSTAYMHLNSLTSEDSAVYYCARGYGNYKAWFAYWGQGTLVTVSA
VL: DAVMTQTPKFLLVSAGDRVTITCKASQSVTNDVAWYQQKPGQSPKLLIYYASNRYTGVPDRFTGSGYGTDFTFTISTVQAEDLAVYFCQQDYSSLTFGAGTKLELK
For B1, the “decrease of enzymatic activity of cellular CD73 (MDA-MB-231)” value (from here on “decrease”) in test [3] was more than 75%. Further, in test [4], the “EC50 for CD73 blockade (enzymatic activity of soluble recombinant human CD73-his, Cell Titer Glo luciferase read-out)” value (“EC50 for CD73 blockade” below) was 0.41 µg/mL. Moreover, in test [5], the “EC50 for neutralization of enzymatic activity of cellular CD73 (MDA-MB-231 cells, free phosphate from AMP hydrolysis, Malachite Green)” value turned out to be 0.195 µg/mL. Besides, in test [6], the “EC50 for neutralization of cellular CD73 enzymatic activity, mean over MDA-MB-231, H292 and A375 cells (N=8)” value is 0.1 µg/mL; the “EC70 for neutralization of cellular CD73 enzymatic activity, mean over MDA-MB-231, H292 and A375 cells (N=8)” value worked out at 0.15 µg/mL; the “EC100 for neutralization of cellular CD73 enzymatic activity, mean over MDA-MB-231, H292 and A375 cells (N=8)” value is 0.52 µg/mL.

B2: antibody 8C7 (antibody, V domains shown)
VH: EVQLQQSGPELVKPGASVKVSCKASGYAFASYNMNWVKQSHGKSLDWIGYIDPYNGGSSYNLTFKGKATLTVDKSSTTAYMHLNSLTSEDSAVYYCARGYGNYKAWFAYWGQGTLVTVSA
VL: SIVMTPTPKFLLVSAGDRVTITCKASQSVSNDVAWYQQKPGQSPKLLIYYASTRYTGVPDRFTGSGYGTDFTFTISTVQAEDLAVYFCQQDYSSLTFGAGTKLELKR
As for B2, the “decrease” value in test [3] was more than 75%. Moreover, the “EC50 for CD73 blockade” value in test [4] came to 1.29 µg/mL. The “EC50 for neutralization of enzymatic activity of cellular CD73 (MDA-MB-231 cells, free phosphate from AMP hydrolysis, Malachite Green)” value in test [5] amounted to 0.319 µg/mL. Besides, in test [6], the “EC50 for neutralization of cellular CD73 enzymatic activity, mean over MDA-MB-231, H292 and A375 cells (N=2)” value is 0.21 µg/mL.

B3: antibody 6E1 (antibody, V domains shown)
VH: EFQLQQSGPELVKPGASVKVSCKASGYAFTSYNMYWVKQSHGKRLEWIGYIDPYNGGSSYNQKFKGKATLTVDKSSSTAYMHLNNLTSEDSAVYYCARGYNNYKAWFAYWGQGTLVTVSA
VL: SIVMTQTPKFLLVSAGDRVTITCKASQSVTNDVAWYQQKPGQSPKLLIYYASNRYTGVPDRFTGSGYGTDFTFTISTMQAEDLAVYFCQQDYSSLTFGAGTKLELK
For the molecule B3, the “decrease” value in test [3] was more than 75%. Moreover, the “EC50 for CD73 blockade” value in test [4] came to 0.33 µg/mL. For the same molecule, the “EC50 for neutralization of enzymatic activity of cellular CD73 (MDA-MB-231 cells, free phosphate from AMP hydrolysis, Malachite Green)” value in test [5] was determined as 0.209 µg/mL. Besides, in test [6], the “EC50 for neutralization of cellular CD73 enzymatic activity, mean over MDA-MB-231, H292 and A375 cells (N=8)” value came to 0.13 µg/mL; the “EC70 for neutralization of cellular CD73 enzymatic activity, mean over MDA-MB-231, H292 and A375 cells (N=8)” value is 0.19 µg/mL; the “EC100 for neutralization of cellular CD73 enzymatic activity, mean over MDA-MB-231, H292 and A375 cells (N=8)” value was 0.68 µg/mL.

B4: antibody 3C12 (antibody, V domains shown)
VH: QIQLQQSGPELVKPGASVKVSCKASGYAFASYNMNWVKQSHGKSLDWIGYIDPYNGGSSYNLTFKGKATLTVDKSSTTAYMHLNSLTSEDSAVYYCARGYGNYKAWFAYWGQGTLVTVSA
VL: DVVMTQTPKFLLVSAGDRVTITCKASQSVSNDVAWYQQKPGQSPKLLIYYASTRYTGVPDRFTGSGYGTDFTFTISTVQAEDLAVYFCQQDYSSLTFGAGTKLELKR
Regarding B4, in test [3], the “decrease” value was more than 75%. Moreover, the “EC50 for CD73 blockade” value in test [4] was determined as 0.41 µg/mL. Besides, the “EC50 for neutralization of enzymatic activity of cellular CD73 (MDA-MB-231 cells, free phosphate from AMP hydrolysis, Malachite Green)” value in test [5] amounted to 0.21 µg/mL. Moreover, in test [6], the “EC50 for neutralization of cellular CD73 enzymatic activity, mean over MDA-MB-231, H292 and A375 cells (N=8)” value stood at 0.14 µg/mL; the “EC70 for neutralization of cellular CD73 enzymatic activity, mean over MDA-MB-231, H292 and A375 cells (N=8)” value was 0.18 µg/mL; the “EC100 for neutralization of cellular CD73 enzymatic activity, mean over MDA-MB-231, H292 and A375 cells (N=8)” value worked out at 0.3 µg/mL.

By EC50 is commonly meant the concentration needed to bring the measured effect to its halfway point.

The values are drawn from EP3259288B1 (Innate Pharma, dated 2026).
